Experimental data reported in publication PMC5681435, “Differential Regulation of G1 CDK Complexes by the Hsp90-Cdc37 Chaperone System” (Cell Reports, 2017).
Where “and” joins values, the source holds several entries; their conditions need not be identical. Equal values may be shown once. Entries after “also recorded” stand apart in the source; their conditions may differ.

Tests used:
CDK4-cyclin D1 = tested on: CDK4-cyclin D1; parameters: method as in Koh et al., 1995; details: ref Koh et al., 1995; cited from earlier work
[1] = Differential scanning fluorimetry (DSF) melting temperature; assay type: physicochemical; details: for Tm: 5 µM protein
CDK6 = molecular target: T1, CDK6 (Homo sapiens, UniProt Q00534); test: SPR binding to immobilized GSTCDK6; details: for Kd: GSTCDK6 captured on chip, 4 °C
T1 construct: Full length human CDK4 and CDK6 with an N-terminal; made in house; host or cells: Sf9 insect cells (baculovirus, MultiBac)

G1 progression = tested on: G1 progression; parameters: method as in Koh et al., 1995; details: ref Koh et al., 1995; cited from earlier work
CDK4-Cdc37 complex = molecular target: T2, CDK4-Cdc37 complex (Homo sapiens, UniProt P11802); assay type: binding; details: HTRF competition, 8 nM GSTCDK4, 150 nM C-Avi Cdc37
T2 construct: Full length human CDK4 and CDK6 with an N-terminal; made in house; host or cells: GSTCDK4: Sf9 insect cells; Cdc37: E. coli

CDK4 = molecular target: T3, CDK4 (Homo sapiens, UniProt P11802); test: SPR binding to immobilized GSTCDK4; details: for Binding to CDK4 by SPR (in words): GSTCDK4 captured on chip
T3 construct: Full length human CDK4 and CDK6 with an N-terminal; made in house; host or cells: Sf9 insect cells (baculovirus, MultiBac)

[2] = molecular target: T4, CDK6-Cdc37 and CDK6-Cdc37-SfHsp90 complexes (Homo sapiens, UniProt Q00534); test: Pull-down with Avi-tagged bait from CDK6-Cdc37 and CDK6-Cdc37-SfHsp90 complexes assembled in insect cells; assay type: binding; details: 3-fold molar excess of complex, 4 °C
T4 construct: Full length human CDK4 and CDK6 with an N-terminal; made in house; host or cells: Sf9 insect cells (co-expression, baculovirus)
Experimental: exchange chromatography (HiTrap Q, GE Healthcare). Protein concentrations were determined by NanoDrop2000 UV-Vis Spectrophotometer (Thermo Scientific) or using a Shimadzu UV1800 spectrophotometer. A representative SDS-polyacrylamide gel stained with silver is shown in Figure S4 to illustrate the purity of the GSTCDK4 and GSTCDK6 […]
Avi-tagged proteins (Cdc37, p16INK4a, p16INK4a mutants, Kcyclin and Vcyclin) were biotinylated to provide an affinity tag for the streptavidin-tagged XL665 dye. A substantial amount of biotinylated protein was purified from the recombinant E. coli cells as a result of endogenous BirA activity. Proteins were further modified by incubating 40 µM of the Avi-tagged protein with 10 µg BirA in biotinylation buffer (50 mM Bicine pH 8.3, 10 mM ATP, 10 mM MgOAc, 50 µM d-biotin) at 30°C for 60 minutes. […] The extent of protein biotinylation was monitored by pull downs using High Capacity NeutrAvidin® Agarose Resin (Thermo […]
To assemble the various complexes, 15 µg of Cdc37 was mixed with a molar equivalent of CDK6, and incubated for 1hour at 4 °C. […] The reactions were stopped by addition of 2 x LDS buffer and analysed by SDS-PAGE and subsequent western blotting using an anti-phosphorylated S780 antibody […]
Homogenous time-resolved fluorescence (HTRF) […]

T1 sequence (Q00534 whole entry): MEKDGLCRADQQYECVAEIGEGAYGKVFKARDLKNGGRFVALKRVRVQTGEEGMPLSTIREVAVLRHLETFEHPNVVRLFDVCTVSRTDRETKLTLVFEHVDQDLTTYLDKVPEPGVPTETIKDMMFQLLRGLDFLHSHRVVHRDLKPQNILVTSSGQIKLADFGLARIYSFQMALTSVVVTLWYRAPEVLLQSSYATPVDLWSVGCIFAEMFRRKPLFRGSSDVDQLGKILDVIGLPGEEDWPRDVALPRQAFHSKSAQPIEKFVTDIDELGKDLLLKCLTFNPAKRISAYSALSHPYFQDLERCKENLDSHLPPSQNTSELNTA
T2 sequence (P11802 whole entry, one chain of several): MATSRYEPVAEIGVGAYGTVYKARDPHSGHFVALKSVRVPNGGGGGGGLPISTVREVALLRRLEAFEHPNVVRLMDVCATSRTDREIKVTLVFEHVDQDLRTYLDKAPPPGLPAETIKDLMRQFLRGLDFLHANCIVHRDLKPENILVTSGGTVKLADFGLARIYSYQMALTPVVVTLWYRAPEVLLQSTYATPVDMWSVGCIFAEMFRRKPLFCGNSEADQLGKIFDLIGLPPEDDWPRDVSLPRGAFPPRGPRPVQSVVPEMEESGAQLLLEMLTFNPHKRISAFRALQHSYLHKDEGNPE
T3 sequence (P11802 whole entry): as the sequence (P11802 whole entry, one chain of several) above
T4 sequence (Q00534 whole entry, one chain of several): as the sequence (Q00534 whole entry) above

B1: p16D84N: p16INK4a mutant in which D84 is mutated to an asparagine (protein)
chain: MEPAAGSSMEPSADWLATAAARGRVEEVRALLEAGALPNAPNSYGRRPIQVMMMGSARVAELLLLHGAEPNCADPATLTRPVHNAAREGFLDTLVVLHRAGARLDVRDAWGRLPVDLAEELGHRDVARYLRAAAGGTRGSNHARIDAAEGPSDIPD
Inhibition of CDK4-cyclin D1 kinase activity (CDK4-cyclin D1): as effectively as wild-type p16INK4a
Tm [1]: 45.1 (±1.9) °C
Tm ([1]; listed as D84N): 45.1 °C
Kd (CDK6): 60 nM
Inhibition of G1 progression (G1 progression): modestly less effective
Displacement of Cdc37 from CDK4-Cdc37 complex (in words) (CDK4-Cdc37 complex): unable to displace CDK4 or CDK6 from Cdc37
Binding to CDK4 by SPR (in words) (CDK4): binding could be detected but not quantified

B2: p16M53E: p16INK4a M53E mutant (protein)
chain: MEPAAGSSMEPSADWLATAAARGRVEEVRALLEAGALPNAPNSYGRRPIQVMEMGSARVAELLLLHGAEPNCADPATLTRPVHDAAREGFLDTLVVLHRAGARLDVRDAWGRLPVDLAEELGHRDVARYLRAAAGGTRGSNHARIDAAEGPSDIPD
ΔTm (versus p16INK4a) [1]: −4.6 (±1.66) °C
Tm [1]: 43.2 (±0.38) °C

B3: p16D108N: p16INK4a mutant, D108 mutated to an asparagine (protein)
chain: MEPAAGSSMEPSADWLATAAARGRVEEVRALLEAGALPNAPNSYGRRPIQVMMMGSARVAELLLLHGAEPNCADPATLTRPVHDAAREGFLDTLVVLHRAGARLDVRNAWGRLPVDLAEELGHRDVARYLRAAAGGTRGSNHARIDAAEGPSDIPD
ΔTm (versus p16INK4a) [1]: −10.5 (±1.29) °C
Tm [1]: 36.4 °C and 36.4 (±3.1) °C
Displacement of Cdc37 from CDK4-Cdc37 complex (in words) (CDK4-Cdc37 complex): only a modest reduction in activity

B4: p16M53I: p16INK4a mutant in which M53 is mutated to an isoleucine (protein)
chain: MEPAAGSSMEPSADWLATAAARGRVEEVRALLEAGALPNAPNSYGRRPIQVMIMGSARVAELLLLHGAEPNCADPATLTRPVHDAAREGFLDTLVVLHRAGARLDVRDAWGRLPVDLAEELGHRDVARYLRAAAGGTRGSNHARIDAAEGPSDIPD
ΔTm (versus p16INK4a) [1]: −4.9 (±2.33) °C
Tm [1]: 42.7 (±0.47) °C
Tm ([1]; listed as M53I): 42.7 °C
Higher rate of dissociation from CDK6 compared with wild-type p16INK4a (CDK6): approximately 10 fold
Displacement of Cdc37 from CDK4-Cdc37 complex (in words) (CDK4-Cdc37 complex): ineffective
Binding to CDK4 by SPR (in words) (CDK4): binding could be detected but not quantified
Reduction in the strength of the interaction with CDK4 versus wild-type p16INK4a (CDK4; enhanced koff rate toward CDK4): > 10^6 fold

B5: Vcyclin: viral D-type cyclin from Herpesvirus saimiri (protein)
chain: MADSPNRLNRAKIDSTTMKDPRVLNNLKLRELLLPKFTSLWEIQTEVTVDNRTILLTWMHLLCESFELDKSVFPLSVSILDRYLCKKQGTKKTLQKIGAACVLIGSKIRTVKPMTVSKLTYLSCDCFTNLELINQEKDILEALKWDTEAVLATDFLIPLCNALKIPEDLWPQLYEAASTTICKALIQPNIALLSPGLICAGGLLTTIETDNTNCRPWTCYLEDLSSILNFSTNTVRTVKDQVSEAFSLYDLEIL
Kd (CDK6): 0.016 ± 0.013 nM
Binding to CDK4 by SPR (in words) (CDK4): the data quality precluded calculation of a Kd

B6: Kcyclin: viral D-type cyclin from Kaposi’s sarcoma-associated herpesvirus (protein)
chain: MATANNPPSGLLDPTLCEDRIFYNILEIEPRFLTSDSVFGTFQQSLTSHMRKLLGTWMFSVCQEYNLEPNVVALALNLLDRLLLIKQVSKEHFQKTGSACLLVASKLRSLTPISTSSLCYAAADSFSRQELIDQEKELLEKLAWRTEAVLATDVTSFLLLKLLGGSQHLDFWHHEVNTLITKALVDPKTGSLPASIISAAGCALLVPANVIPQDTHSGGVVPQLASILGCDVSVLQAAVEQILTSVSDFDLRILDSY
modifications: biotin (on the Avi tag); left off: Avi tag, end not stated, kept
notes: viral D-type cyclin from Kaposi’s sarcoma-associated herpesvirus
Displacement of CDK6 from CDK6-Cdc37 and CDK6-Cdc37-SfHsp90 (pull-down) [2]: able to displace CDK6; also recorded: could extract CDK6
